Experimental data reported in patent publication US20170173105A1, “AUTOASSEMBLING PEPTIDES FOR THE TREATMENT OF PULMONARY LEAKAGE” (3-D MATRIX, LTD., priority 2014, published 2017).

How the values were obtained:
Type in all cases: physicochemical
[1] = Appearance of 1.5% peptide solutions with various salts at room temperature; conditions: for Appearance: room temperature
Description: The effect of salt ionic strength level on the properties of peptide solutions was evaluated to identify optimized salt ionic strength levels for the peptides as described herein. Increasing the salt ionic strength level of PuraMatrix® and other peptides may generally improve its function and mechanical strength for various clinical applications. To adjust the salt ionic strength of the peptide solutions by way of example, various salt buffer solutions including NaCl, KCl, MgCl2, CaCl2 and DPBS (10×) were added to 2 mL of 1.5% peptide solutions.

[2] = Rheological properties of pH adjusted peptide solutions and hydrogels (stress/frequency sweep)
Description: Based on the visual observation of the effect of pH level on the properties of the peptide solutions, the effect on the rheological properties of the peptide solutions after adjusting their pH level to 3.4 (PuraMatrix® and KLD12) or 3.7 (IEIK13) was evaluated. If the pH levels of peptide solutions are higher than 3.5 (PuraMatrix® and KLD12) or 3.7 (IEIK13), the peptide solution began phase separation becoming cloudy. The rheological properties of PuraMatrix®, KLD12 and IEIK13 solutions were higher at pH 3.4. The results are shown in FIG. 2 for KLD12 1%, FIG. 3 for IEIK13 1%, and FIGS. 4-5 for PuraMatrix® 1% and 2.5%, respectively. Stress sweep tests were performed at 10 rad/s. Frequency sweep tests were performed at 1 Pa.
Based on the results of the effect on the rheological properties of the peptide solutions after adjusting their pH level to 3.4 (PuraMatrix® and KLD12) or 3.7 (IEIK13), the effect on the rheological properties of the peptide solutions at various pH levels was evaluated. […] The rheological properties of peptides were evaluated at various concentrations using a rheometer (DHR-1, TA Instruments) with 20 mm plates. The results are shown in FIG. 6A for PuraMatrix® 2.5% solution and FIG. 6B for IEIK13 1.5% solution, respectively. Frequency sweep tests were performed from 1 rad/sec to 10 rad/sec at 1 Pa and the storage modulus at 1 rad/sec was selected for data.
Based on the results of the effect on the rheological properties of the peptide solutions after adjusting their pH level, the effect on the rheological properties of the peptide hydrogels at various pH after DMEM treatment was evaluated and compared to the effect on the rheological properties of the peptide solutions at various pH before DMEM treatment. […] The results are shown in FIGS. 7A-7B for PuraMatrix® and FIGS. 8A-8B for IEIK (SEQ ID NO: 5), respectively. Frequency sweep tests were performed from 1 rad/sec to 10 rad/sec at 1 Pa and the storage modulus at 1 rad/sec was selected for data.

[3] = Gelation of peptide solutions on saline buffer treatment (time sweep); conditions: saline buffer (0.15 M of NaCl); IEIK13 1.5%, KLD12 1.5%, PuraMatrix 2.5%
Description: The effect of salt ionic strength level surrounding peptide solution on the properties of peptide solutions was evaluated to identify the possibility of peptide gelation when the peptide solution is placed into the environment where salt ionic strength level is high. […] Without pH effect, the effect of saline treatment on gelation of peptide solutions were evaluated. […] This is because IEIK13 is much more sensitive to salt ionic strength levels. Fast gelation of IEIK13 at the salt ionic strength level similar to body fluid isotonic salt level may generally improve its function and gelation speed for various clinical applications. The results are shown in FIG. 19 for IEIK13, KLD12 and PuraMatrix® solutions. Time sweep tests were performed at 1 rad/sec and at 1 Pa with 20 mm plates and 500 μm gap distance. […]

[4] = pH and appearance of 2.5% peptide solutions after adding 0.1 N NaOH
Description: To adjust the pH level of the peptide solutions by way of example, 0.1 N NaOH was added to 2 mL of 2.5% peptide solutions and their pH and appearance were measured.

[5] = 0.1 N NaOH 0 μL/mL added in 2.5% solution, conc. 2.5%
[6] = 0.1 N NaOH 50 μL/mL added in 2.5% solution, conc. 2.38%
[7] = 0.1 N NaOH 100 μL/mL added in 2.5% solution, conc. 2.27%
[8] = pH increase up to approximately 3.5 or less with 0.1 N NaOH, 2.5% solutions

## Arg-Ala-Asp-Ala-Arg-Ala-Asp-Ala-Arg-Ala-Asp-Ala-Arg-Ala-Asp-Ala [PuraMatrix ®]
[1]; CaCl2 0 M, ionic strength 0 M, PuraMatrix 1.5%
  Appearance: Clear, thick gel
[1]; CaCl2 0.05 M, ionic strength 0.15 M, PuraMatrix 1.48%
  Appearance: Clear, thick, stiffer gel
[1]; CaCl2 0.1 M, ionic strength 0.3 M, PuraMatrix 1.45%
  Appearance: Clear, thick, stiffer gel
[1]; CaCl2 0.15 M, ionic strength 0.45 M, PuraMatrix 1.43%
  Appearance: Clear, thick, stiffer gel
[1]; CaCl2 0.2 M, ionic strength 0.6 M, PuraMatrix 1.4%
  Appearance: Clear, thick, stiffer gel
[1]; CaCl2 0.25 M, ionic strength 0.75 M, PuraMatrix 1.38%
  Appearance: Clear, thick, stiffer gel
[1]; CaCl2 0.3 M, ionic strength 0.9 M, PuraMatrix 1.35%
  Appearance: Clear, thick, stiffer gel
[1]; CaCl2 0.35 M, ionic strength 1.05 M, PuraMatrix 1.32%
  Appearance: Clear, thick, stiffer gel
[1]; CaCl2 0.383 M, ionic strength 1.15 M, PuraMatrix 1.31%
  Appearance: Clear, thick, stiffer gel
[1]; CaCl2 0.4 M, ionic strength 1.2 M, PuraMatrix 1.3%
  Appearance: Slightly cloudy, thick, stiffer gel
[1]; CaCl2 0.417 M, ionic strength 1.25 M, PuraMatrix 1.29%
  Appearance: Slightly cloudy, brittle gel
[1]; CaCl2 0.433 M, ionic strength 1.3 M, PuraMatrix 1.28%
  Appearance: Cloudy, phase-separated
[1]; DPBS (pH 3.2) 0 M, ionic strength 0 M, PuraMatrix 1.5%
  Appearance: Clear, thick gel
[1]; DPBS (pH 3.2) 0.15 M, ionic strength 0.15 M, PuraMatrix 1.35%
  Appearance: Clear, thick, stiffer gel
[1]; DPBS (pH 3.2) 0.3 M, ionic strength 0.3 M, PuraMatrix 1.2%
  Appearance: Clear, thick, stiffer gel
[1]; DPBS (pH 3.2) 0.45 M, ionic strength 0.45 M, PuraMatrix 1.05%
  Appearance: Clear, thick, stiffer gel
[1]; DPBS (pH 3.2) 0.6 M, ionic strength 0.6 M, PuraMatrix 0.9%
  Appearance: Clear, thick, stiffer gel
[1]; DPBS (pH 3.2) 0.75 M, ionic strength 0.75 M, PuraMatrix 0.75%
  Appearance: Clear, thick, stiffer gel
[1]; DPBS (pH 3.2) 0.9 M, ionic strength 0.9 M, PuraMatrix 0.6%
  Appearance: Clear, thick, stiffer gel
[1]; DPBS (pH 3.2) 0.95 M, ionic strength 0.95 M, PuraMatrix 0.55%
  Appearance: Slightly cloudy, brittle gel
[1]; DPBS (pH 3.2) 1.0 M, ionic strength 1.0 M, PuraMatrix 0.5%
  Appearance: Cloudy, phase-separated
[1]; KCl 0 M, ionic strength 0 M, PuraMatrix 1.5%
  Appearance: Clear, thick gel
[1]; KCl 0.15 M, ionic strength 0.15 M, PuraMatrix 1.43%
  Appearance: Clear, thick, stiffer gel
[1]; KCl 0.3 M, ionic strength 0.3 M, PuraMatrix 1.35%
  Appearance: Clear, thick, stiffer gel
[1]; KCl 0.45 M, ionic strength 0.45 M, PuraMatrix 1.27%
  Appearance: Clear, thick, stiffer gel
[1]; KCl 0.6 M, ionic strength 0.6 M, PuraMatrix 1.2%
  Appearance: Clear, thick, stiffer gel
[1]; KCl 0.75 M, ionic strength 0.75 M, PuraMatrix 1.13%
  Appearance: Clear, thick, stiffer gel
[1]; KCl 0.9 M, ionic strength 0.9 M, PuraMatrix 1.05%
  Appearance: Clear, thick, stiffer gel
[1]; KCl 0.95 M, ionic strength 0.95 M, PuraMatrix 1.03%
  Appearance: Clear, thick, stiffer gel
[1]; KCl 1.0 M, ionic strength 1.0 M, PuraMatrix 1.0%
  Appearance: Clear, thick, stiffer gel
[1]; KCl 1.05 M, ionic strength 1.05 M, PuraMatrix 0.98%
  Appearance: Slightly cloudy, thick, stiffer gel
[1]; KCl 1.1 M, ionic strength 1.1 M, PuraMatrix 0.95%
  Appearance: Slightly cloudy, brittle gel
[1]; KCl 1.15 M, ionic strength 1.15 M, PuraMatrix 0.93%
  Appearance: Cloudy, phase-separated
[1]; MgCl2 0 M, ionic strength 0 M, PuraMatrix 1.5%
  Appearance: Clear, thick gel
[1]; MgCl2 0.05 M, ionic strength 0.15 M, PuraMatrix 1.48%
  Appearance: Clear, thick, stiffer gel
[1]; MgCl2 0.1 M, ionic strength 0.3 M, PuraMatrix 1.45%
  Appearance: Clear, thick, stiffer gel
[1]; MgCl2 0.15 M, ionic strength 0.45 M, PuraMatrix 1.43%
  Appearance: Clear, thick, stiffer gel
[1]; MgCl2 0.2 M, ionic strength 0.6 M, PuraMatrix 1.4%
  Appearance: Clear, thick, stiffer gel
[1]; MgCl2 0.25 M, ionic strength 0.75 M, PuraMatrix 1.38%
  Appearance: Clear, thick, stiffer gel
[1]; MgCl2 0.3 M, ionic strength 0.9 M, PuraMatrix 1.35%
  Appearance: Clear, thick, stiffer gel
[1]; MgCl2 0.35 M, ionic strength 1.05 M, PuraMatrix 1.32%
  Appearance: Clear, thick, stiffer gel
[1]; MgCl2 0.383 M, ionic strength 1.15 M, PuraMatrix 1.31%
  Appearance: Clear, thick, stiffer gel
[1]; MgCl2 0.4 M, ionic strength 1.2 M, PuraMatrix 1.3%
  Appearance: Slightly cloudy, thick, stiffer gel
[1]; MgCl2 0.417 M, ionic strength 1.25 M, PuraMatrix 1.29%
  Appearance: Slightly cloudy, brittle gel
[1]; MgCl2 0.433 M, ionic strength 1.3 M, PuraMatrix 1.28%
  Appearance: Cloudy, phase-separated
[1]; NaCl 0 M, ionic strength 0 M, PuraMatrix 1.5%
  Appearance: Clear, thick gel
[1]; NaCl 0.15 M, ionic strength 0.15 M, PuraMatrix 1.43%
  Appearance: Clear, thick, stiffer gel
[1]; NaCl 0.3 M, ionic strength 0.3 M, PuraMatrix 1.35%
  Appearance: Clear, thick, stiffer gel
[1]; NaCl 0.45 M, ionic strength 0.45 M, PuraMatrix 1.27%
  Appearance: Clear, thick, stiffer gel
[1]; NaCl 0.6 M, ionic strength 0.6 M, PuraMatrix 1.2%
  Appearance: Clear, thick, stiffer gel
[1]; NaCl 0.75 M, ionic strength 0.75 M, PuraMatrix 1.13%
  Appearance: Clear, thick, stiffer gel
[1]; NaCl 0.8 M, ionic strength 0.8 M, PuraMatrix 1.10%
  Appearance: Clear, thick, stiffer gel
[1]; NaCl 0.85 M, ionic strength 0.85 M, PuraMatrix 1.08%
  Appearance: Clear, thick, stiffer gel
[1]; NaCl 0.9 M, ionic strength 0.9 M, PuraMatrix 1.05%
  Appearance: Slightly cloudy, brittle gel
[1]; NaCl 0.95 M, ionic strength 0.95 M, PuraMatrix 1.03%
  Appearance: Cloudy, phase-separated
[1]; NaCl 1.0 M, ionic strength 1.0 M, PuraMatrix 1.0%
  Appearance: Cloudy, phase-separated
[1]; up to the ionic strength at which solutions stay clear
  apparent stiffness on salt ionic strength increase: increased
[2]; PuraMatrix 2.5% solution, IEIK13 1.5% solution, storage modulus at 1 rad/sec
  rheological property of solutions at various pH levels: increases with pH adjustment up to 3.4
[2]; after DMEM treatment, storage modulus at 1 rad/sec
  rheological property of hydrogels after DMEM treatment at various pH: increases with pH adjustment up to 3.4
[2]; at pH 3.4 (IEIK13 adjusted to 3.7), KLD12 1%, IEIK13 1%, PuraMatrix 1% and 2.5%
  rheological properties of solutions after pH adjustment: higher
[3]
  gelation after saline buffer treatment: no or negligible gelation
[4]; [5]
  Appearance: Clear, thick gel
  Peptide solution pH: 2.2
[4]; [6]
  Appearance: Clear, thick gel
  Peptide solution pH: 2.3
[4]; [7]
  Appearance: Clear, thick gel
  Peptide solution pH: 2.4
[4]; 0.1 N NaOH 150 μL/mL added in 2.5% solution, conc. 2.17%
  Peptide solution pH: 2.7
[4]; 0.1 N NaOH 200 μL/mL added in 2.5% solution, conc. 2.08%
  Peptide solution pH: 2.9
[4]; 0.1 N NaOH 250 μL/mL added in 2.5% solution, conc. 2.0%
  Peptide solution pH: 3.2
[4]; 0.1 N NaOH 275 μL/mL added in 2.5% solution, conc. 1.96%
  Peptide solution pH: 3.4
[4]; 0.1 N NaOH 300 μL/mL added in 2.5% solution, conc. 1.92%
  Peptide solution pH: 3.6
[4]; 0.1 N NaOH 350 μL/mL added in 2.5% solution, conc. 1.85%
  Peptide solution pH: 4.5
[4]; last line per peptide, NaOH volume and conc. not given
  Peptide solution pH: 7.0
[4]; [8]
  apparent stiffness on pH increase: increased
  color of solution on pH increase: did not change the clear color
